Columns and labels:
[1] = biological target: T1, Rif1 full-length (His6-Rif1-FLAG3) (Schizosaccharomyces pombe (fission …, UniProt Q96UP3 1-1400)); experiment: EMSA; KCl; text: poor binder; EMSA with oligos heat-denatured and renatured in 50 mM KCl/40% PEG200 (Fig 5: 50 mM Tris-HCl pH 7.5 with KCl, NaCl or none); gel shift buffer 40 mM Hepes-KOH pH 7.6, 50 mM KCl, 1 mM EDTA, 10% glycerol, 0.01% Triton X-100; pull-down 30 min at room temperature; +++/++/+ = >50/>16/>6% shift at 1 nM Rif1; conditions: protein: recombinant; tags: N-term His6, C-term FLAG3; label: 32P; hybrid G4
T1 sequence: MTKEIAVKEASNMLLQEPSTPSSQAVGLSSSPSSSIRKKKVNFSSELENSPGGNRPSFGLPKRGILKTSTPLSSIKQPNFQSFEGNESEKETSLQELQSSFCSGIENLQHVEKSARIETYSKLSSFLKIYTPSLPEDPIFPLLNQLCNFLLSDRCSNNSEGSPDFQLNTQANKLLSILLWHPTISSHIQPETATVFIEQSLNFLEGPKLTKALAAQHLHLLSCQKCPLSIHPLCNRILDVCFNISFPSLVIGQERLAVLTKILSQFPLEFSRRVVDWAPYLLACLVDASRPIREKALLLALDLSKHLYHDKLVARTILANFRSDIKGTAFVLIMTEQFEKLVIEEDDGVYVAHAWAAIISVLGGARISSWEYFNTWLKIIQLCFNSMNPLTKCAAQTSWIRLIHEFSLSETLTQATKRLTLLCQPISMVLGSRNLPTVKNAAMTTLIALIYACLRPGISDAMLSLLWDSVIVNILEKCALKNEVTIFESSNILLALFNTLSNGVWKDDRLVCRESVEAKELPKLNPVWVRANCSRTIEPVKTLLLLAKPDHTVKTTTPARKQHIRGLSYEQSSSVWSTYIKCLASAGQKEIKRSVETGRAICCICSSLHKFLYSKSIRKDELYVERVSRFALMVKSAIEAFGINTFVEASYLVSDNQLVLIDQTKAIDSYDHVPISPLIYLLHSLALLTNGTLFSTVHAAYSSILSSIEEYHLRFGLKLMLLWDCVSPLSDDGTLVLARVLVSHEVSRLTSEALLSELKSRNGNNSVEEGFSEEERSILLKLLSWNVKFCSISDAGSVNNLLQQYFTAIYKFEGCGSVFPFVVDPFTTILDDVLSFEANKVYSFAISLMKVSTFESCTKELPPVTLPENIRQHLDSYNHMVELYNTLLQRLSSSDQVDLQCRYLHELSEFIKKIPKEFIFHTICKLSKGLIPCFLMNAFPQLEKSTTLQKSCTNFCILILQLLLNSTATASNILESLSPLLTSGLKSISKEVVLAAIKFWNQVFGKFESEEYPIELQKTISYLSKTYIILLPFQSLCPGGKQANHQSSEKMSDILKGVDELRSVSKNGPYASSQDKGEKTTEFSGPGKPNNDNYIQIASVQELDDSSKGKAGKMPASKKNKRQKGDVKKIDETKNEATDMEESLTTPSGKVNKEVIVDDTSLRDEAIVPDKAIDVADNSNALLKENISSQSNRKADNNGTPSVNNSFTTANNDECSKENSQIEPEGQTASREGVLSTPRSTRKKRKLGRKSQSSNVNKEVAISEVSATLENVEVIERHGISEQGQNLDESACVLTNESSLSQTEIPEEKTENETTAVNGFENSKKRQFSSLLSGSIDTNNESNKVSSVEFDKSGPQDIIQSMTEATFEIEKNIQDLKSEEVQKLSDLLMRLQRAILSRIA

[2] = biological target: T1, Rif1 full-length (His6-Rif1-FLAG3); experiment: EMSA; EMSA with oligos heat-denatured and renatured in 50 mM KCl/40% PEG200 (Fig 5: 50 mM Tris-HCl pH 7.5 with KCl, NaCl or none); gel shift buffer 40 mM Hepes-KOH pH 7.6, 50 mM KCl, 1 mM EDTA, 10% glycerol, 0.01% Triton X-100; pull-down 30 min at room temperature; +++/++/+ = >50/>16/>6% shift at 1 nM Rif1; conditions: protein: recombinant; tags: N-term His6, C-term FLAG3; label: 32P
Taz1 = biological target: T2, Taz1 (Schizosaccharomyces pombe (fission …, UniProt P79005 1-663)); experiment: as above; conditions: protein: recombinant; tags: N-term His6, C-term FLAG3; chain copies: 2; label: 32P; blunt
T2 sequence: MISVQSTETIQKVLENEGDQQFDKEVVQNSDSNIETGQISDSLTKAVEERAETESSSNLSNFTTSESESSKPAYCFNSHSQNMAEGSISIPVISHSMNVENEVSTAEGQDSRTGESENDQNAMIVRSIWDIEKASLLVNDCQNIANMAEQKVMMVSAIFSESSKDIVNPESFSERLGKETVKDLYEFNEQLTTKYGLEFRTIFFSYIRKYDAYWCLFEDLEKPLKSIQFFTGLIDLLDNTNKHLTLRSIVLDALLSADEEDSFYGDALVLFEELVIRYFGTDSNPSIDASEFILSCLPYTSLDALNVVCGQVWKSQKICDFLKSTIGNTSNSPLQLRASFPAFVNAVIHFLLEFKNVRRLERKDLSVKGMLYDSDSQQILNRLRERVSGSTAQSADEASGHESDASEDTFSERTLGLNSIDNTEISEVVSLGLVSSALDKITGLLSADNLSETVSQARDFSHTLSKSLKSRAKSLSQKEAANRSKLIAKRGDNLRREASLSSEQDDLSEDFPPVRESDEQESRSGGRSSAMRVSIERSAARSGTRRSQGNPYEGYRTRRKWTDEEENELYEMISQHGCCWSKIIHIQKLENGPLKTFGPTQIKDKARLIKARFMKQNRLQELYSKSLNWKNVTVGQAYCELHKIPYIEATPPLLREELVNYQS

[3] = biological target: T1, Rif1 full-length (His6-Rif1-FLAG3); experiment: EMSA; KCl; text: not bound very efficiently; EMSA with oligos heat-denatured and renatured in 50 mM KCl/40% PEG200 (Fig 5: 50 mM Tris-HCl pH 7.5 with KCl, NaCl or none); gel shift buffer 40 mM Hepes-KOH pH 7.6, 50 mM KCl, 1 mM EDTA, 10% glycerol, 0.01% Triton X-100; pull-down 30 min at room temperature; +++/++/+ = >50/>16/>6% shift at 1 nM Rif1; conditions: protein: recombinant; tags: N-term His6, C-term FLAG3; label: 32P; hybrid G4

TAGGGTTAGGGTTAGGGTTAGGGTT (structured_DNA) [Htelo2]: no binding [1].

GGGGGGGGGG (structured_DNA) [G10]: binds [2].

B1: Taz1BS (dsDNA)
DNA 1: TTACAGGTTACAGGTTACAGG
DNA 2: CCTGTAACCTGTAACCTGTAA
B1 was tested, and the Kd (Taz1) was roughly 30 nM.

TAGGGTTAGGGTTAGGGTTAGGG (structured_DNA) [Htelo1]: no binding [3].
